# Laboratory results as given in article PMC12871931, “The importin‐alpha superfamily engages in ethylene signaling by shuttling [sequence] INSENSITIVE 2 from the endoplasmic reticulum to the nucleus” (The Febs Journal, 2025).
# Ends that are not written are not given here. * marks the point of attachment. 5‑TAMRA = 5-carboxytetramethylrhodamine, N-terminal label, CN(C)c1ccc2c(-c3ccc(C(=O)*)cc3C(=O)[O-])c3ccc(N(C)C)cc3[o+]c2c1
# Experiments:
# Settings in all cases: both partners purified
# [1] = target: T1, importin α6 (IMPα6), Arabidopsis thaliana, recombinant (Arabidopsis thaliana, UniProt Q9FWY7 1-538); assay: fluorescence polarisation; direct titration: TAMRA-NOP-1 constant at 250 nM, IMPα protein concentration varied; 50 μL samples; LS55 spectrometer; Kd by Logistic Fit in Origin; three independent measurements
# T1 construct: importin alpha isoform 6 of Arabidopsis thaliana; gene synthesised by GenScript, cloned into pETEV21a; source: E. coli BL21pRARE, purified (Ni2+-IMAC)
# T1 sequence (looked up): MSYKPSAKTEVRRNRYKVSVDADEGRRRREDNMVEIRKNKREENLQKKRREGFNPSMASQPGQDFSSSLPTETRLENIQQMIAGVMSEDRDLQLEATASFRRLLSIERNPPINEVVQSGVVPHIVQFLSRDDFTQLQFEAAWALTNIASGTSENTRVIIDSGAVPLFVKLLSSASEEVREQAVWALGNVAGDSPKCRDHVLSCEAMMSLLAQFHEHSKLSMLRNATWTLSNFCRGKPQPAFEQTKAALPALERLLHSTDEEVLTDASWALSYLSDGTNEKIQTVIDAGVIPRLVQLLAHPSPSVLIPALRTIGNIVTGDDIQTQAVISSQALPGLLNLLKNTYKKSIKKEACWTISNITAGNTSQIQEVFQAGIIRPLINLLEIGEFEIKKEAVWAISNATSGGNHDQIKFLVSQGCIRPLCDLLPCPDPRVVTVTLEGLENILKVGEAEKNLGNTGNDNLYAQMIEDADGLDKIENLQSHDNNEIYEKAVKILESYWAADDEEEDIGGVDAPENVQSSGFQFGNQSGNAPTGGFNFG
# [2] = target: T2, importin α3 (IMPα3), Arabidopsis thaliana, recombinant (Arabidopsis thaliana, UniProt O04294 1-531); assay: as above
# T2 construct: importin alpha isoform 3 of Arabidopsis thaliana; gene isolated from A. thaliana, cloned into pETEV21a; source: E. coli BL21pRARE, purified (Ni2+-IMAC)
# [3] = target: T3, importin α5 (IMPα5), Arabidopsis thaliana, recombinant (Arabidopsis thaliana, UniProt Q9FJ09 1-519); assay: as above
# T3 construct: importin alpha isoform 5 of Arabidopsis thaliana; gene synthesised by GenScript, cloned into pETEV21a; IMPα5 was additionally cloned into pETEV16b (N-terminal deca-His-tag); source: E. coli BL21pRARE, purified (Ni2+-IMAC)
# T3 sequence (looked up): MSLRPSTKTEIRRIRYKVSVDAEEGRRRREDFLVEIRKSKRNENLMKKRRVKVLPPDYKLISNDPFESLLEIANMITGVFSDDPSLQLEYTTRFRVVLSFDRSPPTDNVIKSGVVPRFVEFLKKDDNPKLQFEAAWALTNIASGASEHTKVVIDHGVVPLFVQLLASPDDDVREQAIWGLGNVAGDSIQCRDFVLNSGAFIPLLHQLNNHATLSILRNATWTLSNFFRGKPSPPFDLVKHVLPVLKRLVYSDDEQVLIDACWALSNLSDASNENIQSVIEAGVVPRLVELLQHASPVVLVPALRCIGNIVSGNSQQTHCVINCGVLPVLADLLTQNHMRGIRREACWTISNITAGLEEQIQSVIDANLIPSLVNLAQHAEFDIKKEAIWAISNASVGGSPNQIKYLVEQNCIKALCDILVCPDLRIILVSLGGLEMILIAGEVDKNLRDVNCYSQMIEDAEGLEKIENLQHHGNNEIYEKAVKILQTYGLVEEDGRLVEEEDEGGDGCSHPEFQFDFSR
# [4] = target: T4, importin α2 (IMPα2), Arabidopsis thaliana, recombinant (Arabidopsis thaliana, UniProt F4JL11 1-535); assay: as above
# T4 construct: importin alpha isoform 2 of Arabidopsis thaliana; gene isolated from A. thaliana, cloned into pETEV21a; source: E. coli BL21pRARE, purified (Ni2+-IMAC)
# [5] = target: T5, importin α8 (IMPα8), Arabidopsis thaliana, recombinant (Arabidopsis thaliana, UniProt Q9FJ92 1-441); assay: as above
# T5 construct: importin alpha isoform 8 of Arabidopsis thaliana (contains only ARM repeats, no IBB domain); gene isolated from A. thaliana, cloned into pETEV21a; source: E. coli BL21gold, purified (Ni2+-IMAC)
# T5 sequence (looked up): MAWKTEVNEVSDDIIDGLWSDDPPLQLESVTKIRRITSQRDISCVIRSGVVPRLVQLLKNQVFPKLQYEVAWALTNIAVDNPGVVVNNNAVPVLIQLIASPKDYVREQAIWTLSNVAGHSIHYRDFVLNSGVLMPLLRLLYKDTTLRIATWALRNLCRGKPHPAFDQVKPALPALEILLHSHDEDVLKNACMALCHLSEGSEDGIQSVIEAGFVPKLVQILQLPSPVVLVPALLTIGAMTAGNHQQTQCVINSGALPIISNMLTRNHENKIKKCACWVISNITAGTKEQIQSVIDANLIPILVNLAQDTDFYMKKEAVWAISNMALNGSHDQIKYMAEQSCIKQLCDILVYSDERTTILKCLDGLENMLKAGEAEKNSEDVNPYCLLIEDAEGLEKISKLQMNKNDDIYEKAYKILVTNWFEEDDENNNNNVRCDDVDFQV
# [6] = target: T6, importin α4 (IMPα4), Arabidopsis thaliana, recombinant (Arabidopsis thaliana, UniProt O80480 1-538, biotin (Biotin-PEG4-NHS ester Protein Labeling Kit) in the BLI experiments only); assay: as above
# T6 construct: importin alpha isoform 4 of Arabidopsis thaliana; gene isolated from A. thaliana, cloned into pETEV21a; Unlabelled in fluorescence polarisation; biotinylated and held on streptavidin tips in BLI; source: E. coli BL21pRARE, purified (Ni2+-IMAC)
# [7] = target: T7, importin α9 (IMPα9), Arabidopsis thaliana, recombinant (Arabidopsis thaliana, UniProt F4KF65 1-519); assay: as above
# T7 construct: importin alpha isoform 9 of Arabidopsis thaliana; gene synthesised by GenScript, cloned into pETEV21a; source: E. coli BL21pRARE, purified (Ni2+-IMAC)
# T7 sequence (looked up): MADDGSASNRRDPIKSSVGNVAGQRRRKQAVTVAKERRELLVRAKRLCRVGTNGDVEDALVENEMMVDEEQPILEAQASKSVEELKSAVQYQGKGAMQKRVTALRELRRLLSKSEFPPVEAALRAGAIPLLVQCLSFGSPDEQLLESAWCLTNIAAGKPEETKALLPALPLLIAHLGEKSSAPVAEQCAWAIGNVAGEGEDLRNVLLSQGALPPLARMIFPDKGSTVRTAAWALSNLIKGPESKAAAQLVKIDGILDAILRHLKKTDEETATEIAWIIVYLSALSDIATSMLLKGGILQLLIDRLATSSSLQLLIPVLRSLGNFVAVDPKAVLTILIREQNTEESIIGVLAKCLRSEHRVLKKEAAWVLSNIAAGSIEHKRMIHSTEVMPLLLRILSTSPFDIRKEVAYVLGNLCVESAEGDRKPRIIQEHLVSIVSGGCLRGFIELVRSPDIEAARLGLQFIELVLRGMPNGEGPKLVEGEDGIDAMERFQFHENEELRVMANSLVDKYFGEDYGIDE
# [8] = target: T6, importin α4 (IMPα4), Arabidopsis …; assay: fluorescence polarisation; competition: TAMRA-NOP-1 and IMPα4 (6 μM) held constant, unlabelled competitor concentration varied; Logistic Fit in Origin; n = 3
# [9] = target: T6, importin α4 (IMPα4), Arabidopsis …; assay: BLI; Octet K2; biotinylated ΔIBB_IMPα1 or IMPα4 loaded (15 μM, 600 s) on streptavidin biosensors; peptides/protein in solution; 100 mM Tris pH 7.0, 100 mM KCl, 0.01% Tween 20; room temperature; 300 s association, 300 s dissociation; dose response curves, 1:2 heterogeneous ligand model
# T6 sequence (O80480 whole entry, canonical isoform): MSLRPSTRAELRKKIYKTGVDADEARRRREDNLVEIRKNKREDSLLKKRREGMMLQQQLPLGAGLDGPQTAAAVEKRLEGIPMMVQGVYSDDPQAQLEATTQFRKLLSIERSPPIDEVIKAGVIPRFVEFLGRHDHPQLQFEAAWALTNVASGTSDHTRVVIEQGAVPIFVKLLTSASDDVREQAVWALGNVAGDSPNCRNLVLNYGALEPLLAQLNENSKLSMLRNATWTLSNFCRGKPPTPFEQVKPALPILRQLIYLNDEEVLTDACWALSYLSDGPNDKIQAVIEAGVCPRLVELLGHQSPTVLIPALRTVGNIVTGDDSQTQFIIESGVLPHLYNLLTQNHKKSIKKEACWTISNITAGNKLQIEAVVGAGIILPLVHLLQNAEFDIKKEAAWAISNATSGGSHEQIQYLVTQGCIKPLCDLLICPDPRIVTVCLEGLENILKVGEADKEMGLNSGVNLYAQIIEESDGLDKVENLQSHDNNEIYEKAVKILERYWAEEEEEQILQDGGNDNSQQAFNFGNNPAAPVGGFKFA
# T2 sequence (O04294 whole entry, canonical isoform): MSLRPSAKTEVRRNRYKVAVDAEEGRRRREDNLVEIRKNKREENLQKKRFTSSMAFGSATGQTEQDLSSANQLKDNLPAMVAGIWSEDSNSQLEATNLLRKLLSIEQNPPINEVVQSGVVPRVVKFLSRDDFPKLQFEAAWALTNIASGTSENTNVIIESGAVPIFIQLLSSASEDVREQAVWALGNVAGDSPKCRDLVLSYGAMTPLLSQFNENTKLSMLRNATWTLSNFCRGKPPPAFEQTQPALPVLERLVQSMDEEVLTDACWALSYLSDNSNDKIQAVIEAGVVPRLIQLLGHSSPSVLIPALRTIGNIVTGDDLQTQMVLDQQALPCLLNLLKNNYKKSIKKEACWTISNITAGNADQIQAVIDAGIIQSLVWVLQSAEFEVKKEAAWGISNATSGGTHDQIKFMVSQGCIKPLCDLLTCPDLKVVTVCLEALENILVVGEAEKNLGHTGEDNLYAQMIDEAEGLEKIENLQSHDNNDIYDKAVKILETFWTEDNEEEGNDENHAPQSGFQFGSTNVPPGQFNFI
# T4 sequence (F4JL11 whole entry, canonical isoform): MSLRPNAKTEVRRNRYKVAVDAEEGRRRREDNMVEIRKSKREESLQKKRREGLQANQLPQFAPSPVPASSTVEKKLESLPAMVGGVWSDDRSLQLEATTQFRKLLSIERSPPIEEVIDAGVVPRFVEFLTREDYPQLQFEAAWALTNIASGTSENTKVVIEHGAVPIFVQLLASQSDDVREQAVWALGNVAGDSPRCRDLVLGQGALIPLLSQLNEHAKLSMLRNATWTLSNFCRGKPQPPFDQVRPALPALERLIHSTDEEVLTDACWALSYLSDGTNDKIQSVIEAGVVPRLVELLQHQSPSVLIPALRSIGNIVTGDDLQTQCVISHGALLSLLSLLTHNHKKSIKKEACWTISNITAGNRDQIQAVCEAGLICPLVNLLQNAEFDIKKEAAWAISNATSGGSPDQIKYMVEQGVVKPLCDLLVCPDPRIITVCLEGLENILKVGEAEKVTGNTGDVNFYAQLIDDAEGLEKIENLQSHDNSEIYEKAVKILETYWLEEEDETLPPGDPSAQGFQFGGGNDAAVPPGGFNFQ
binder,measurement,setting,value
"{5‑TAMRA}-LKRYKRRL (also called fluorescently labeled NOP‐1; source: synthetic peptide (solid-phase peptide synthesis, Fmoc, made in house)) [TAMRA‐NOP‐1 (EIN2 NLS peptide, N‐terminally labeled with 5‐TAMRA)]",Kd,[1],8.7 ± 1.5 µM
same,binding result,[2],binds
same,Kd,[3],12.9 ± 0.9 µM
same,binding result,[4],binds
same,Kd,[5],7.9 ± 0.2 µM
same,Kd,[6],~6 µM
same,Kd,[7],13.8 ± 0.9 µM
"LKRYKRRL (8 residues; The methods speak of amidated C-termini and acetylated N-termini of 'the D-ri-peptides'; whether this holds for NOP-1 is not clear; also called EIN2‐NLS core motif; basic EIN2‐NLS probe; source: synthetic peptide, bought: GenScript) [NOP‐1 (EIN2 NLS peptide, EIN2 residues 1262–1269)]",Kd,[8],4.1 ± 0.4 µM
same,Kd,[9],7.6 µM
"GB1‐AtEIN2C^1215–1281 (domain or fragment, Arabidopsis thaliana, UniProt Q9S814 1215-1281, looked up, cloned into pETEV16b with a GB1-domain at the N terminus to enhance solubility; also called GB1_AtEIN2^1215–1281; shortened EIN2 CEND; source: E. coli BL21pRARE, purified (Ni2+-IMAC); not shown: GB1 domain, N-terminal, kept) KGKCTTAVTLLDLIKDVEMAISCRKGRTGTAAGDVAFPKGKENLASVLKRYKRRLSNKPVGMNQDGP",Kd,[8],22.1 ± 2.8 µM
same,Kd high,[9],21.4 µM
same,Kd low,[9],0.455 µM
"KDVEMAISCRKGRTGTAAGDVAFPKGKENLASVLKRYKRRL (peptide, UniProt Q9S814 1229-1269, looked up, 41 residues; The methods speak of amidated C-termini and acetylated N-termini of 'the D-ri-peptides'; whether this holds for N41P-1 is not clear; also called extended EIN2‐NLS probe N41P‐1; source: synthetic peptide, bought: GenScript) [N41P‐1 (EIN2 residues 1229–1269)]",Kd,[8],8.1 ± 1.1 µM
same,Kd,[9],9.8 µM
